Here are results for 30 sequences from the nanobody polyreactivity screen of Harvey et al. (2022).

This data set can be described thus: yeast display, Sf9 membrane polyspecificity reagent, FACS + sequencing; frameworks hold sequencing errors. The method in brief: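 Sorting gates, low and high (top ~1%), were placed on anti-HA fluorescence to track expression and on streptavidin fluorescence to track reagent binding. A clone's polyreactivity label is taken from the gate it came out of. The reagent was 10% biotinylated, detergent-solubilized Sf9 membrane, applied for 1 hour at 4 °C to galactose-induced yeast display cells.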
In the case of “QVQLVESGGGLVQAGGSLRLSCAASGSTFFRNAMGWYRQAPGKERELVAAITWSGGSTYYADSVKGRFTISRDNAKNTVYLQMNSLKPEDTAVYYCAAGLSYWTPHYYPFDYWGQGTQVTVSS”, the “polyreactivity (PSR sort gate)” value was “low polyreactivity”. Regarding “QVHLVESRGVLVQAGGSLRLSCAASGFTFNRNAMGWYRQAPGKERELVAAISTSGGRTYYADSVKGRFTISRDNAKNTVYLHMNSLKPEDTAVYYCAADGIYPVGVDYWGQGTQVTVSS”, the “polyreactivity (PSR sort gate)” value is “high polyreactivity”.

Take “QVQLVESGGGLVQAGGSLRLSCAASGNTLDAYAMGWYRQAPGKERELVASITYRGGSTYYADSVKGRFTISRDNAKNTVYLQMNSLKPEDTAVYYCAAAYQKSPITPKMDYWGQGTQVTVSS”: the “polyreactivity (PSR sort gate)” value was “low polyreactivity”. With “QVQLVESGGGLVQAGGSLRLSCAASGFIFRYYAMGWYRQAPGTERELVAAISQSGGSTDYADSVKGRFTISRDTAKNTVYLQMNSLKPVDTAVYYCATRTPYTKRDYWGQGTQVTVSS” the entry was “high polyreactivity”.

In the case of “QVQLVESGGGLVQAGGSLRLSCAASGFTITIYAMGWYRQAPGKERELVATISGRAGRTYYADSVKGRFTISRDNAKNTVYLQMNSLKPEDTAVYYCNAGQWRYPGLYYYWGQGTQVTVSS”, the “polyreactivity (PSR sort gate)” value is “high polyreactivity”. For “QVQLVESGGGLVQAGGSLRLSCAASGFTFKRYAMGWYRQAPGKERELVAVISSGGSTYYADSVKGRFTISRDNAKNCVYLQMNRLKPEDTAVYYCNAYIGGSSWHTALDYWGQGTQVTVSS”, the “polyreactivity (PSR sort gate)” value is listed as “high polyreactivity”.

In the case of “QVQLVETGGGLVQAGGSLRLSCAASGNTFGDYAMGWYRQAPGKERELVAAISRSGGSTSYADSVKGRFTISRDNAKNTVYLQMNSLKPADTAVYYCAAYWQRFGYDYWGQGTQVTGSS”, the “polyreactivity (PSR sort gate)” value is “low polyreactivity”. Consider “QVQLVESGGGLVQAGGSLRLSCAASGSICVRNTMGWYRQAPGKERELVAAISSRGTSTYYADSVKGRFTISRDNAKNTVYLQMNSLKPEDTAVYYCAARVYPYNSWGQGTQVTVSS”, for which the “polyreactivity (PSR sort gate)” value was “high polyreactivity”.

Take “QDQLGESGGGLVQAGGSLRLSCAASGSTFTWYAMGWYRQAPGKERELVAAISRGGSTNYADSVKGRFTISRDNAKNTVYLQMNSLKPEDTAVYYFAAESYWRDDYWGQGTQVTLSS”: the “polyreactivity (PSR sort gate)” value is given as “low polyreactivity”.

As for “QVQLVETGGGLVQAGGSLRLSCAASGSIFGGYAMGWYRQAPGKERELVAGITRSGGSTYYADSVKGRFTISRDNAKNTVYLQMNSLKPEDTAVYYCAVEIQFYRSPRKVRSYDYWGQGTQVTVSS”, the “polyreactivity (PSR sort gate)” value is “low polyreactivity”. For “QVQLVESGGGLVQAGGSLRLSCAASGSIFDVNAMGWYRPAPGKERELVAAISDSGGSTYYADSVKGRFTISRDTAKNTVYLQMNSLKPEDTAVYYCNADWSWYNYYDFDYWGQGTQVTVSS”, the “polyreactivity (PSR sort gate)” value is listed as “low polyreactivity”. With “QVQLVESGGGLVQAGGSLRLSCAASGNIFSLNGMGWYRQAPGKEREFVAAITWSVGSTSSADSVKGRFTISRDNAKNTVYLQMNSLKPEDTAVYYGAATVSDLYKHEYYYWGQGTQVTVSS”, the “polyreactivity (PSR sort gate)” value is recorded as “low polyreactivity”.

“QVQLVESGGGLVQAGGSLRLSCAASGGTFWAYTRGWYRQAPGKERELVATISFGTGNTYYADSVKGRFTISRDNAKNTVYLQMNSLKPEDTAVYYCAAQWPELTRSYVTVEVDYWGQGTQVTVSS”: the “polyreactivity (PSR sort gate)” value is reported as “low polyreactivity”. For the sequence “QVQLVESGGGLVQAGGSLRLSCAASGITFAFYAMGWYRQAPGKERELVAAISWSGTRTYYADSVKGRFTISRDNAKNTVYLQMNSLKPEDTAVYYCAADYQAGYKMFDYWGQGTQVTVSS”, the “polyreactivity (PSR sort gate)” value is on record as “low polyreactivity”. Under “QVQLVESGGGLVQAGGSLRLSCAASGRILVHNAMGWYRQAPGKERELVAAITWSGGSTYYADSVKGRFTISRDNAKNTFYLQMNSLKPEDTAVYYCAAEQWRYDGSFTGYGYWGQGTQVTVSS” stands “low polyreactivity”; under “QVQLVESGGGLVQAGGSLRLSCAASGFTFNWYAMAWYRQAPGKERELVATINSGGSTYYADSVKGRFTISRDNAKNTVYLQMISLKPEDTAVYYCNRTHRRRYVKSAYIYWGQGTQVTVSS”, “low polyreactivity”. For “QVQLQESGGGLVQAGGSLRLSCAASGSISRYYDMGWYRQAPGKEREFVAGISGGAITYYADSVKGRFTISRDNAKNTVDLQMNSLKPQDTAVYYCAADTGVYQYHSYWGQGTQVTVSS”, the “polyreactivity (PSR sort gate)” value is reported as “low polyreactivity”. With “QVQLVESGGGLVQAGGSLRLSCAASGSTFGVNAMGWYRQAPGKERELVAVITRSGGSTYYADSVKGRFTISRDNAKNTFNLQMNSLKPEDSAVYYCNTEGGRDTAWYDYWGQGTEVTVSS”, the “polyreactivity (PSR sort gate)” value was “low polyreactivity”.

For “QVQLVESGGGLVQAGGSLRLSCDASARTFYRNTMGWYRQAPGKERELVAAITRSGGSTYYADSVKGRFTISRDNAKNTVYLQINRLKPEDTAVYYCAASRTYYAPYGYWGQGTQVTVSS”, the “polyreactivity (PSR sort gate)” value is “high polyreactivity”.

Turning to “QVQLVESGGGLVQAGGSLRLSCAASGSTIERYAMGWYRHAPGKERELVAAIRWSGGSTYYADSVKGRFTISRDNAKNTVYLQMNSLKPEDTAVYYCAASRSNADWFDSWGQGTQVTVSS”, the “polyreactivity (PSR sort gate)” value is recorded as “high polyreactivity”.

As for “QVQLVESGGGLVQAGGSLRLSCAASGFIFWYYAMGWYRQAPGKERELVAAISARDGSTYYADSVKGRFTISRDNAKNTVYLQMNSLKPEDTAVYYCNAVQRYPKFRMDYWGQGTQVTVSS”, the “polyreactivity (PSR sort gate)” value is given as “low polyreactivity”.

Take “QVQLVESGGGLVQAGGSLRLSCDASGSIIIGNSMGWYRQAPGKERELVAVINGSDGTTYYADSVKGRFTISRDNAKNTVYLQMNSLKPEDTAVYYCNADFIDPSVYDYNYWGQGTQVTVSS”: the “polyreactivity (PSR sort gate)” value is on record as “low polyreactivity”. Under “QVQLVESGGGLFQAGGSLRLSCAASGISFWSYDMGWYRQAPGKERELVAAISRGGESTYYADSVKGRFTISRDLAKNTVYVQMNSLKPEDTAVYYCPALRPREEYYWGQGTQVTVSS” stands “high polyreactivity”; under “QVQLVESGGGLVQAGGSLRLSCAASGFIISPYAMGWYRQAPGKERELVAAISWSGVSTYYADSVKGRFTISRDNAKNTVYLQMNSLKPEDTAVYYCATYRTVYYWGQGTQVTVSS”, “high polyreactivity”. With “QVQLVESGGGLVQAGGSLRLSCAASGSIFCYYAMGWYRQAPGKERELVAAINSGVRTYYADSVKGRFTISRDNAKNTVYLQMISLKPEDTAVYYCAARYIFKGLRYGYWGQGTQVTVSS” the entry was “high polyreactivity”; with “QVQLVESGGGLVQAGGSLRLSCAASGRIFRYYAMGWYRQAPGKERELVAAISWSGTSTYYADSVKGRFTISRDNAKNTVYLQMNSLKPEDTAVYYCAKVGYQYATYRSDYWGQGTQVTVSS”, “high polyreactivity”. With “KVQLVESGGGLVQAGGSLRLSCAASGIIFGRYAMGWYRQAPGKERELVATISRSGGTTYYADSVKGRFTISRDNAKNTVYLQMNSLKPEDTAVYYCAARWTSRYDYWGQGTQVTVSS” the entry was “high polyreactivity”; with “QVQLVESAGGLVQAGGSLRITCAASGINFTFYTMGWYRQAPGKERELVAAITWSGGSTNYADSVKGRFTISRDNAKNTVYLQMNSLKPEDTAVYYCAAQGYPQSPPWEDYWGQGTQVTVSS”, “low polyreactivity”. As for “QVQLVESGGGLVQTGGSLRLSCAASGSIYGEYAMGWYRQSPGKEREFVADITWSDGSTYYADSVKGRFTISRDNAKNTVYLQMNSLKPEDTAVYYCAADSVLDRQVLYLWPWYLGDYWGQGTQVTVSS”, the “polyreactivity (PSR sort gate)” value is listed as “low polyreactivity”. Take “QVQLVESGGGLVQAGGSLRLSCAASGISFSYYAMGWYRQAPGKERELVAAITSSGGSTYYADSVKGRFTISRDNEKNTVYLQMTSLKPEDTAVYYCNAKRAPWGTLYNYWGLGTQVTVSS”: the “polyreactivity (PSR sort gate)” value was “high polyreactivity”.
